This is an account of results in FireProtDB (doi:10.1021/acs.biochem.7b01284).

The conditions of the series: Methanothermobacter thermautotrophicus (strain ATCC 29096 / DSM 1053 / JCM 10044 / NBRC 100330 / Delta H); pH 7.5; Thermal; DSC; potassium phosphate buffer; reversible: no; whole UniProt chain shown.

B1: Geranylgeranylglyceryl phosphate synthase wild type, O26652 (protein)
chain: MKVEDYFHDILRERKIHLTLIDPEEQTPEEAVEIARAAIRGGTDGIMLGGSTTDSSELDNTARALRENIDVPIILFPGNTTGVSRYADAIFFMSLLNSTNPYWIIGAQALGAATVKKMGIEALPMGYLVVEPGGTVGWVGDTKPVPRNKPDIAAAYAMAAEFLGMRLFYLEAGSGAPEHVPEEMIALVKRCTDQILIVGGGIRSGEDAARVAGAGADVVVTGTVVENSDNVEDKIREIVEGMGSV
For B1, the “unfolding enthalpy (calorimetric)” value was determined as 389 kcal/mol.
